In the DeepSol protein solubility set:

assay: soluble on expression in E. coli; label from the status in PepcDB or PDB records

Row | Sequence | soluble on expression in E. coli
1 | MGLQSLKEPVENSVQDEFSHFWSQHGEWVEEPNVRRGGESGVQRLVMDNGQTLYAKRQTGHIYRSLLHPLGRPTVLREREALEGLRKLGVVVPEVVFCGAERGEDNAWRALLVTVALDGFDEIEKWLAAGGRERHGELFYERMLKEVASTLARMHLGRWQHSCLYIKHVFVRVTGDGPDAKVEVALLDLEKGRRRLTAQGAAQHDMKQLRRHSSFSAADWQKLVYFYQTAFGSSIKGLES | not soluble
2 | MGLSATIMEAEPEGRKRPGSRAIYFHKATLIHLESIFPGLGYTLAKNGLVWPIKRTFFRGKEVFVKDYGPTDPNQLPPFTSLPQDRAEQFMFDACLQAGVEFVWKTPIRQVETSPAGATLTTKAGDVWSADYVIGADGARSSVRTTAGMKLEGPRTNDTFLVVDVKEDEESPLPLERVFHYEHPAMGGRNVMFVPFVGGWRVDLQLLEHDDPEEYSHPEGVRRWIQKVMPAKYGERVTWVSTYRFHQVVADSFTDQHGKVLLAGEAAHLFAPFGARGLNSGTPDAIKAAQGIHTALSARDDQAAKQAIFAAAHERRIAALWNRDCSSTALEHLQGLEHHHHHH | not soluble
3 | MGLTIPVILNSVNNLSDARYAAGMGVEFMGFEVEASGERYVSPDLYKAITAWLSGVQTVTELAVLTPAVLTTIQEQYQPDFIQFESVEGISQSDLADLPCIQKIIISTGQEAKIFNNLAQYIFSEANYVLLELSDWTNWTEFQQLITEINTAYPVIWSLPIEKEDAALIQEIELKGISLKGGDEQRPGWKDLDQLIDILEALEEN | not soluble
4 | MGMACLTMTEMEATSTSPVHQNGDIPGSANSVKQIEPVLQVYLYHSLGQAEGEYLKFPSGEYVAEEICVAASKACGITPVYHNMFALMSETERIWYPPNHVFHIDESTRHDILYRIRFYFPHWYCSGSSRTYRYGVSRGAEAPLLDDFVMSYLFAQWRHDFVHGWIKVPVTHETQEECLGMAVLDMMRIAKEKDQTPLAVYNSVSYKTFLPKCVRAKIQDYHILTRKRIRYRFRRFIQQFSQCKATARNLKLKYLINLETLQSAFYTEQFEVKESARGPSGEEIFATIIITGNGGIQWSRGKHKESETLTEQDVQLYCDFPDIIDVSIKQANQECSNESRIVTVHKQDGKVLEIELSSLKEALSFVSLIDGYYRLTADAHHYLCKEVAPPAVLENIHSNCHGPISMDFAISKLKKAGNQTGLYVLRCSPKDFNKYFLTFAVERENVIEYKHCLITKNENGEYNLSGTKRNFSNLKDLLNCYQMETVRSDSIIFQFTKCCPPKPKDKSNLLVFRTNGISDVQISPTLQRHNNVNQMVFHKIRNEDL | not soluble
5 | MGMLGLDLLKEVPGLLEEIKALPLRLDEERFRFWLQQDYPFVEALYRYQVGLLLEAPQAHRAPLVQALMATVEELDWLLLQGASPSAPVHPVRAGYIALLEEMGRLPYAYRVVFFYFLNGLFLEAWAHHVPEEGPWAELSQHWFAPEFQAVLYDLEVLARGLWEDLDPEVVRTYLRRILEAEKATWSLLL | soluble
6 | MGNAGESKKSNSDSAKGEEKASGSLTISGSSAMQPLVLAAAEKFMEENPDADIQVQAGGSGTGLSQVSEGAVQIGNSDVFAEEKEGIDAKALVDHQVAVVGMAAAVNPDAGVKDISKDELKKIFTGKIKNWKELGGKDQKITLVNRPDSSGTRATFVKYALDGAEPAEGITEDSSNTVKKIIADTPGAIGYLAFSYLTDDKVTALSIDGVKPEAKNVATGEYPIWAYQHSYTKGEATGLAKEFLDYLKSEDIQKSIVTDQGYIPVTDMKVTRDANGKQSLEHHHHHH | not soluble
7 | MGNIIRIGMADLKASHHPAILTTLGLGSCVGIALYDRTTKIVGLAHAMLPDSSQVKNKTNAAKFVDTAIELLVKEMLSLGASKKRIVAKLAGGAQMFTFTQGAELMRIGQRNVAAAKSKLESLDIPVVSEDTGGNYGRTVELDSESGMLLIRTIGYGTKQI | not soluble
8 | MGNKAERHRAIQEIVRREEIGTQKELVERLRQLGFEVTQATVSRDIAELGLARIALGKGRHRYVLPAADLPENAYEELKRQFGLFVRDVDRGGNLLVVKTAEGHASGIAYLLDRLRRDEIVGTLAGDDTILVVARTEEAAQALEDEFAGLLVEGRALRRALSGS | soluble
9 | MGNRSSSHYPPPPHWMHQRTSYSTTTSPYPEAKQRPIAPGAFAEPYMHHNPHHPQSKAQMRRSMISLNADSGYMGGPDSERLRQMRGSRMSLNQIDFEPAMMPPPRILIPPDAKTLKKLEKMEKKHQKLMKKLGARGIPIQMPVPPPPPMHPMYSRAISYDDLHRMHEAPEIDVRMRQRDWRTSDERRGLPTRRETQSQYVKHNYSSTNRRAELNGSLASSSPMTSSEEGGHSSDPWNTSSISSGKRDIISPPMYSSTPHHHNHHNHQQLQHHQVIKSPQPPITKTIEVKVERSEKVEQQVSEPTKRAPPTAAQTASSTSSRIQHNQTLNNSNATYAQPIIRRQPSYGSRSSSIATSQMRCDQSEIDFSWVNEEEDKLKRESKRIDSLPEFYFGMDPPPVPSDNEKENDEKRNRRKSSVLEKTAAFEIEARRNDRKEPSFLSRSSHQLLTTSEIPPADYSPLSIHTKEIGGPAERRIYRIQKQQQQHSSEDRRYRSSIAF | not soluble
10 | MGNTAMWMSCNPTIPILFGIQVKIFPLNQIFNHIHPARYAVTFENNVDSKLRRHWVAGATIRIIDRQTDEVIAKKTIYVFEKGLDGTGGARMPWKFAILCNKERLTSSEPLSDFVLSVLKPYILRPLYIASLRRDD | not soluble
11 | MGPAKKKKKGKEKKFRRELGSWSAVELEKFIEYKAEDAGKKVIYINPKYSPQKCSRCGYVSKENRHDSVFKCKNCGFELNADLNASRNIEVIRVSEYFRLLSASQSLLFNETPLTGGAGDQRQAPKLLEHHHHHH | soluble
12 | MGPKRRQLTFREKSRIIQEVEENPDLRKGEIARRFNIPPSTLSTILKNKRAILASERKYGVASTCRKTNKLSPYDKLEGLLIAWFQQIRAAGLPVKGIILKEKALRIAEELGMDDFTASNGWLDRFRRRRS | soluble
13 | MGQKMKNAPVYFTIAQVRHNPVLRLGSYAPDIQDRMRKAGYPDFKKGIAMAFTLAPQLGDAPQTQPPVVEQVERLMFFSTDSTRGFIVEQNALSFHTTEYETFEALADEFMRGLAIVHECVTLAHSERIGLRYLDAVVPPGGETGLAEYLAPGVLGLSSRLPEDVTVSHSFSETHIQTAKCAVLARTIIQSGPLGFPMDLQPIGVKVADRFREINGVHAIVDTDASIEGRHPFNLELIKSQLQVLRDGVGIAFDATVTPIAVSAWNS | not soluble
14 | MGREFLDLFEQWAESYDRSVEGYDEQYRDVFAGYDRILSTVADKAGQVVLEFGVGTGNLTKKLLERGKRVYGIEPSAPMRKKAAEKLNGRAVILEGDFLQFPTPPEPIDTIASTYAFHHLTDAEKDEALAKYSQLLHPGGKIVFADTAFRDKEAFRQAIEEARARGFHDLADDLEREYYTTLDVLASLFSKHGFSASFAQQNAFVWVMEAVKQTT | not soluble
15 | MGRGRSSSSSSIESSSKSNPFGASSSTRNLSTDLRLGLSFGTSSGTQYFNGGYGYSVAAPAVEDAEYVAAVEEEEENECNSVGSFYVKVNMEGVPIGRKIDLMSLNGYRDLIRTLDFMFNASILWAEEEDMCNEKSHVLTYADKEGDWMMVGDVPWEMFLSTVRRLKISRANYHY | soluble
16 | MGRLSGKTILVTGAASGIGRAALDLFAREGASLVAVDREERLLAEAVAALEAEAIAVVADVSDPKAVEAVFAEALEEFGRLHGVAHFAGVAHSALSWNLPLEAWEKVLRVNLTGSFLVARKAGEVLEEGGSLVLTGSVAGLGAFGLAHYAAGKLGVVGLARTLALELARKGVRVNVLLPGLIQTPMTAGLPPWAWEQEVGASPLGRAGRPEEVAQAALFLLSEESAYITGQALYVDGGRSIVGPPGLPPGFGPKGGERHAHVL | soluble
17 | MGSDAKNLMSDGNVQIVKTGEVIGATQLTEGELIVEAGGRAENTVVTGAGWLKVATGGIAKCTQYGNNGTLSVSDGAIATDIVQSEGGAISLSTLATVNGRHPEGEFSVDKGYACGLLLENGGNLRVLEGHRAEKIILDQEGGLLVNGTTSAVVVDEGGELLVYPGGEASNCEINQGGVFMLAGKASDTLLAGGTMNNLGGEDSDTIVENGSIYRLGTDGLQLYSSGKTQNLSVNVGGRAEVHAGTLENAVIQGGTVILLSPTSADENFVVEEDRAPVELTGSVALLDGASMIIGYGAELQQSTITVQQGGVLILDGSTVKGDSVTFIVGNINLNGGKLWLITDAATHVQLKVKRLRGEGAICLQTSAKEISPDFINVKGEVTGDIHVEITDASRQTLCNALKLQPDEDGIGATLQPA | soluble
